Assay [1] concerns the target mechanistic target of rapamycin (mTOR) (human, UniProt P42345 1-2549). Kind of assay: immunoprecipitation and Western blot, RA-treated hTS cells (FIG. 28d). On the technique in general: Immunoblotting shows a protein as a band on a membrane.
Assay [2] deals with T1, E1A binding protein p300 (EP300) (human, UniProt Q09472 2-2414).
T1 construct: Endogenous protein of RA-treated hTS cells; also called ER300
Kind of assay: immunoprecipitation and Western blot, RA-treated hTS cells (FIG. 22c).

T1 sequence (Q09472 2-2414 limits assumed): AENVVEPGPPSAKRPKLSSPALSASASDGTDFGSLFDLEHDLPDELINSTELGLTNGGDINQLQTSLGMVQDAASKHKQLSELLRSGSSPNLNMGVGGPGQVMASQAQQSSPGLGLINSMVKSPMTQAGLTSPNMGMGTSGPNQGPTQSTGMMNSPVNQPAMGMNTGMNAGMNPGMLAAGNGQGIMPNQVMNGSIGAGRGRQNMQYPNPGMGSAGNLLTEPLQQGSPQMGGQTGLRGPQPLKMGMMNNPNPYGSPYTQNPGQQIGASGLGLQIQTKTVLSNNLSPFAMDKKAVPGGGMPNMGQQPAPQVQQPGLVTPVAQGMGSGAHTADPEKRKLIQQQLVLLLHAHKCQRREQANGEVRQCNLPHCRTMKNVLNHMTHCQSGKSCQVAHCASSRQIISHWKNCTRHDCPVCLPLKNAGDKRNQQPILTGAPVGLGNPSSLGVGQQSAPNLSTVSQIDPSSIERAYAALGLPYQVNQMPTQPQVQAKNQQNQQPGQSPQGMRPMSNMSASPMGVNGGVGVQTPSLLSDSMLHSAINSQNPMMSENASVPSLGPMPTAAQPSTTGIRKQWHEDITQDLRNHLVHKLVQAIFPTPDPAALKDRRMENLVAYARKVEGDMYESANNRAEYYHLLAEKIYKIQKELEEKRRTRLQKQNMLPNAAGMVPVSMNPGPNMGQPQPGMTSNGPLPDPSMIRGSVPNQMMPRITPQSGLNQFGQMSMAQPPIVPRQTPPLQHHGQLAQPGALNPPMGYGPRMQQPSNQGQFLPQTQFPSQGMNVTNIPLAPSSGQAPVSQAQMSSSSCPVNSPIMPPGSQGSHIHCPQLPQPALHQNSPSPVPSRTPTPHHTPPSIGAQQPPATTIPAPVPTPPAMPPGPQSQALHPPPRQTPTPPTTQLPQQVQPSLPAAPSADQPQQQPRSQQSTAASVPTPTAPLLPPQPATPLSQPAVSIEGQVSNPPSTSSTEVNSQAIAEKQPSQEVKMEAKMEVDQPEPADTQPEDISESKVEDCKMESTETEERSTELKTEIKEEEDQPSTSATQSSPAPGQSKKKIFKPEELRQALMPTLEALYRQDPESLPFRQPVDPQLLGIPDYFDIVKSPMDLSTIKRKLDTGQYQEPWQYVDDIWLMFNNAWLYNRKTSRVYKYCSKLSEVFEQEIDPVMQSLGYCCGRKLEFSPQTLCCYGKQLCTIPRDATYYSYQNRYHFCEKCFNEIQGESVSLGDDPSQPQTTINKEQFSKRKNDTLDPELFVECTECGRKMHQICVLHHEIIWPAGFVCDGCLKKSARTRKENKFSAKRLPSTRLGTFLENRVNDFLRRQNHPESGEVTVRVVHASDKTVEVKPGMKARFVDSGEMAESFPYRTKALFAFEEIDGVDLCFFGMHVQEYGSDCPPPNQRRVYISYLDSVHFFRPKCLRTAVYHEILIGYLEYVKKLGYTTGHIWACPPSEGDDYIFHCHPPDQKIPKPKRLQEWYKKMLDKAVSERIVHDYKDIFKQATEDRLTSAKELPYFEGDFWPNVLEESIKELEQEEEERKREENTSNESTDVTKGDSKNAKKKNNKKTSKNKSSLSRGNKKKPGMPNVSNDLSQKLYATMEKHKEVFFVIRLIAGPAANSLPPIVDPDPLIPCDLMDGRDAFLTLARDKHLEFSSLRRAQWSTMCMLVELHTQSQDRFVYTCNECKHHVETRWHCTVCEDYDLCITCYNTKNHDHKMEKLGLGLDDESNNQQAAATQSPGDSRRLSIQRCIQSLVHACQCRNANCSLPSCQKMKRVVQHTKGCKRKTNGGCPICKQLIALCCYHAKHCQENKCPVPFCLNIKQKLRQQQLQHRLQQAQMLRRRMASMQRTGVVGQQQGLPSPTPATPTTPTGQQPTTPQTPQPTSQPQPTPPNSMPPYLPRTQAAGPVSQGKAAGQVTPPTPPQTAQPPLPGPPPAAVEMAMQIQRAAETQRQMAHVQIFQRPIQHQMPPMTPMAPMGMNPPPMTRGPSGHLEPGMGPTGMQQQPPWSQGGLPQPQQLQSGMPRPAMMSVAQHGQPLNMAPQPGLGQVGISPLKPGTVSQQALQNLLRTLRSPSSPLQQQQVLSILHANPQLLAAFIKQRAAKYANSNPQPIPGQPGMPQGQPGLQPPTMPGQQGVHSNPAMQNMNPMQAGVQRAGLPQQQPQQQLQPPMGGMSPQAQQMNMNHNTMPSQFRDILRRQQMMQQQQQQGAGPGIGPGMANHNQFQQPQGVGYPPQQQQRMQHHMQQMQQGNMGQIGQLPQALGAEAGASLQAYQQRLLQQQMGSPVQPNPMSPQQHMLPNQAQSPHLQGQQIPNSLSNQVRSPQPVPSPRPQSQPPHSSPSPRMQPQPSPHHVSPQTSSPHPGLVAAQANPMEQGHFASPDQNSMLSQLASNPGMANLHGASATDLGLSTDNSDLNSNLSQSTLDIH

B1: rac-gamma serine/threonine-protein kinase (AKt3) (enzyme)
chain: SDVTIVKEGWVQKRGEYIKNWRPRYFLLKTDGSFIGYKEKPQDVDLPYPLNNFSVAKCQLMKTERPKPNTFIIRCLQWTTVIERTFHVDTPEEREEWTEAIQAVADRLQRQEEERMNCSPTSQIDNIGEEEMDASTTHHKRKTMNDFDYLKLLGKGTFGKVILVREKASGKYYAMKILKKEVIIAKDEVAHTLTESRVLKNTRHPFLTSLKYSFQTKDRLCFVMEYVNGGELFFHLSRERVFSEDRTRFYGAEIVSALDYLHSGKIVYRDLKLENLMLDKDGHIKITDFGLCKEGITDAATMKTFCGTPEYLAPEVLEDNDYGRAVDWWGLGVVMYEMMCGRLPFYNQDHEKLFELILMEDIKFPRTLSSDAKSLLSGLLIKDPNKRLGGGPDDAKEIMRHSFFSGVNWQDVYDKKLVPPFKPQVTSETDTRYFDEEFTAQTITITPPEKYDEDGMDCMDNERRPHFPQFSYSASGRE
notes: Endogenous protein of RA-treated hTS cells
With B1, in assay [1], the binding result is listed as “binds”.

B2: myocyte enhancer factor 2A (MEF2A) (other, human, UniProt Q02078 1-507, looked up)
chain: MGRKKIQITRIMDERNRQVTFTKRKFGLMKKAYELSVLCDCEIALIIFNSSNKLFQYASTDMDKVLLKYTEYNEPHESRTNSDIVEALNKKEHRGCDSPDPDTSYVLTPHTEEKYKKINEEFDNMMRNHKIAPGLPPQNFSMSVTVPVTSPNALSYTNPGSSLVSPSLAASSTLTDSSMLSPPQTTLHRNVSPGAPQRPPSTGNAGGMLSTTDLTVPNGAGSSPVGNGFVNSRASPNLIGATGANSLGKVMPTKSPPPPGGGNLGMNSRKPDLRVVIPPSSKGMMPPLSEEEELELNTQRISSSQATQPLATPVVSVTTPSLPPQGLVYSAMPTAYNTDYSLTSADLSALQGFNSPGMLSLGQVSAWQQHHLGQAALSSLVAGGQLSQGSNLSINTNQNISIKSEPISPPRDRMTPSGFQQQQQQQQQQQPPPPPQPQPQPPQPQPRQEMGRSPVDSLSSSSSSYDGSDREDPRGDFHSPIVLGRPPNTEDRESPSVKRMRMDAWVT
notes: as for B1
On to B2, for which the binding result in assay [2] is recorded as “binds”.
